Experimental data from US20050053613A1 (MOUNT SINAI SCHOOL OF MEDICINE, published 2005).

B1: CEA liberated by PIPLC from CEA-GFP transfected 293T cells (other, UniProt P06731 35-685, looked up)
chain: KLTIESTPFNVAEGKEVLLLVHNLPQHLFGYSWYKGERVDGNRQIIGYVIGTQQATPGPAYSGREIIYPNASLLIQNIIQNDTGFYTLHVIKSDLVNEEATGQFRVYPELPKPSISSNNSKPVEDKDAVAFTCEPETQDATYLWWVNNQSLPVSPRLQLSNGNRTLTLFNVTRNDTASYKCETQNPVSARRSDSVILNVLYGPDAPTISPLNTSYRSGENLNLSCHAASNPPAQYSWFVNGTFQQSTQELFIPNITVNNSGSYTCQAHNSDTGLNRTTVTTITVYAEPPKPFITSNNSNPVEDEDAVALTCEPEIQNTTYLWWVNNQSLPVSPRLQLSNDNRTLTLLSVTRNDVGPYECGIQNELSVDHSDPVILNVLYGPDDPTISPSYTYYRPGVNLSLSCHAASNPPAQYSWLIDGNIQQHTQELFISNITEKNSGLYTCQANNSASGHSRTTVKTITVSAELPKPSISSNNSKPVEDKDAVAFTCEPEAQNTTYLWWVNGQSLPVSPRLQLSNGNRTLTLFNVTRNDARAYVCGIQNSVSANRSDPVTLDVLYGPDTPIISPPDSSYLSGANLNLSCHSASNPSPQYSWRINGIPQQHTQVLFIAKITPNNNGTYACFVSNLATGRNNSIVKSITVSASGTSPGLSA
notes: Soluble form in the supernatant of PIPLC treated transfectants; also called B9 reactive material
B2: human CD8α expressed on murine T cell hybridoma (3G8) (receptor)
chain: not shown
notes: whole, on cells; also called CD8α chains

Columns and labels:
[1] = target: T1, human CD4 expressed on murine T cell hybridoma (3G4) (human, UniProt P01730 26-458); experiment: absorption of PIPLC-released CEA on transfected hybridoma cells, immunoblot with mAb B9
T1 construct: whole, on cells
Procedure: (§1) CEA exists as a GPI anchored glycoprotein on the surface of IECs. This molecule can be cleaved using the enzyme PIPLC. […] Absorption of CEA by either CD4 or CD8 was determined by immunoblotting with mAb B9. […] These findings are consistent with functional properties previously ascribed to gp180.

[2] = target: B1; experiment: absorption on transfected hybridoma cells, immunoblot with mAb B9
Procedure: as §1

binding result [1]	binding result [2]	Binder
no binding		B1
	binds	B2
